The results in this text go back to patent US20250313635A1 (Merck Sharp & Dohme, published 2025).

Changes are numbered by the printed parent chain.

First the molecules themselves.
B1: Ab-31 (antibody, V domains shown)
VH: EVQLQESGPGLVKPSETLSLTCAVSGYSISSGYYWGWIRQPPGKGLEWIGSIYHSGNTYYNPSLKSRVTISVDTSKNQFSLKLSSVTAADTAVYYCARVPRYSRGDAYYYYGMDVWGQGTTVTVSS
VL: DIQMTQSPSTLSASVGDRVTITCRASQSIGSWLAWYQQKPGKAPKLLIYKASSLESGVPSRFSGSGSGTEFTLTISSLQPDDFATYYCQQSGPYPWTFGGGTKVEIK
B2: Ab-33 (antibody, V domains shown)
VH: EVQLVQSGAEVKKPGSSVKVSCKASGGTFSNYAISWVRQAPGQGLEWMGGIIPIFGTANYAQKFQGRVTITADESTSTAYMELSSLRSEDTAVYYCARAPRSARGDMYYYYYGMDVWGQGTTVTVSS
VL: B1 VL with S91Y, P93R
B3: Ab-30 (antibody, V domains shown)
VH: B1 VH
VL: DIQMTQSPSTLSASVGDRVTITCRASQSISSWLAWYQQKPGKAPKLLIYKASSLESGVPSRFSGSGSGTEFTLTISSLQPDDFATYYCQQVKIYPPYTFGGGTKVEIK
B4: Ab-32 (antibody, V domains shown)
VH: B1 VH
VL: EIVLTQSPGTLSLSPGERATLSCRASQSVRSSYLAWYQQKPGQAPRLLIYGASSRATGIPDRFSGSGSGTDFTLTISRLEPEDFAVYYCQQAGLVFTFGGGTKVEIK
B5: Ab-29 (antibody, V domains shown)
VH: ELQLQESGPGLVKPSETLSLTCTVSGGSISSNSYYWGWIRQPPGKGLEWIGSIYYSGSTYYNPSLKSRVTISVDTSKNQFSLKLSSVTAADTAVYYCARVRRVAGRGDSYYYYYGMDVWGQGTTVTVSS
VL: DIQMTQSPSSVSASVGDRVTITCRASQGISRWLAWYQQKPGKAPKLLIYAASSLQSGVPSRFSGSGSGTDFTLTISSLQPEDFATYYCQQAISHPWTFGGGTKVEIK

Usually IC50 stands for the concentration that inhibits the measured activity by half. What is called EC50 is the concentration needed to bring the measured effect to its halfway point. Low readings indicate greater potency, high ones weaker potency.

T6 sequence (P43406 31-1044, chain 1 of 2): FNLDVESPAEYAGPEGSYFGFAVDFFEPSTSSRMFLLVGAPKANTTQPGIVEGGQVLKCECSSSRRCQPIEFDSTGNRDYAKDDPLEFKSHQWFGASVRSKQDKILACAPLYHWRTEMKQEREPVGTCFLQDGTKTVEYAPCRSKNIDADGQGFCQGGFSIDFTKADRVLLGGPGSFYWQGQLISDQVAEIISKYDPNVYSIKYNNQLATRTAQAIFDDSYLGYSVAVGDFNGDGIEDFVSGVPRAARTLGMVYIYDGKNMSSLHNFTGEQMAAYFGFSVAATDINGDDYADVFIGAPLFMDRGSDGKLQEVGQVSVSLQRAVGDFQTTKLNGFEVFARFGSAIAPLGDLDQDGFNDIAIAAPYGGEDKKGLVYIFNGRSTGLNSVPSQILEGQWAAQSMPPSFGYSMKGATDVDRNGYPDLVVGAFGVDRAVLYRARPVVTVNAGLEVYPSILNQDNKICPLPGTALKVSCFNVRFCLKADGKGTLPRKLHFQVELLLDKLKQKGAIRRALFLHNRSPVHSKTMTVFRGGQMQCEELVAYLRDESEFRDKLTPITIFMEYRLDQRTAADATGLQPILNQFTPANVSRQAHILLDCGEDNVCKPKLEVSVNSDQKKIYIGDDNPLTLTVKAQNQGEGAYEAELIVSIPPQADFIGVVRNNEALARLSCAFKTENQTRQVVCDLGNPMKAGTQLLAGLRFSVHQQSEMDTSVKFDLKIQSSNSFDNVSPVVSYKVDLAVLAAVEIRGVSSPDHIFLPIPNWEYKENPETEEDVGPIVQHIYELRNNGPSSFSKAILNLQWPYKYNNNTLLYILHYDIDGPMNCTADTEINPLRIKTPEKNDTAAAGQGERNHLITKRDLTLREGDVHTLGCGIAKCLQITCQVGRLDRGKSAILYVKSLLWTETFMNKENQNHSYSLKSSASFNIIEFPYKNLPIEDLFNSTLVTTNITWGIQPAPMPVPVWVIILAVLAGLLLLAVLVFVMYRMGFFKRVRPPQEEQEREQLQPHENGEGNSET
T6 sequence (Q9Z0T9 22-787, chain 2 of 2): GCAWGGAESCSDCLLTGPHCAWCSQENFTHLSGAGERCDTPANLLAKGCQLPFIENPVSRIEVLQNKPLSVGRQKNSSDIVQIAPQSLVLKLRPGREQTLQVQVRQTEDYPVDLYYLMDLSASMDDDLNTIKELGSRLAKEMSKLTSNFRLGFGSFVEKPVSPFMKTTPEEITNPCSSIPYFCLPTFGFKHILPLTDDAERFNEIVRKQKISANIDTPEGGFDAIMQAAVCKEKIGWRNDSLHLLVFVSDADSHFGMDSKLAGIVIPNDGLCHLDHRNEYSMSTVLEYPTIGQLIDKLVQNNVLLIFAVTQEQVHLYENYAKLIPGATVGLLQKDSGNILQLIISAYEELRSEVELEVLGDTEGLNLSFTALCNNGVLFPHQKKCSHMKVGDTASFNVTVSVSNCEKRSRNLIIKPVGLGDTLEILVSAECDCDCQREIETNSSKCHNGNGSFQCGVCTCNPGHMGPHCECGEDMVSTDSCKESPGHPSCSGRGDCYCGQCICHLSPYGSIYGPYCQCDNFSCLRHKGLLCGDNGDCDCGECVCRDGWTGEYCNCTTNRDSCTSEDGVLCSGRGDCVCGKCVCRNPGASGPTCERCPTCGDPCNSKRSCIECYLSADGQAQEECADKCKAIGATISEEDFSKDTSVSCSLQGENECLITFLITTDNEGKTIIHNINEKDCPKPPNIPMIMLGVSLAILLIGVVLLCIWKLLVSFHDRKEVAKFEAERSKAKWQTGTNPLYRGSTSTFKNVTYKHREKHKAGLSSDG

The first assay deals with T1, recombinant human αvβ5 integrin extracellular domains (human, UniProt P06756 1-992; P18084 1-719, Secreted glycoprotein heterodimer. It is biotinylated on the omitted Avitag, and an interchain disulfide sits in the omitted coiled-coils.).
T1 construct: Soluble heterodimer co-expressed in Expi293 cells; also called hαvβ5; not shown: Alpha chain: acidic coiled-coil with cysteine and GG-Avitag; Beta chain: basic coiled-coil with cysteine and GG-Avitag
In words: AlphaLISA blocking of human vitronectin-GST binding. Background: Alpha assays give light when donor and acceptor beads are brought close together.
Consider B1, for which the IC50 turned out to be 31.7 nM.
On the same count and under the same terms, then B2, with 22.3 nM; and B3, with 53.5 nM; and B4, with 26 nM.
As for B5, the IC50 was found to be 14.8 nM.

For a further assay, the target named is T2, recombinant human αvβ3 integrin extracellular domains (human, UniProt P06756 1-992; P05106 1-718, Secreted glycoprotein heterodimer. It is biotinylated on the omitted Avitag, and an interchain disulfide sits in the omitted coiled-coils.).
T2 construct: Soluble heterodimer co-expressed in Expi293 cells; also called hαvβ3; not shown: Alpha chain: acidic coiled-coil with cysteine and GG-Avitag; Beta chain: basic coiled-coil with cysteine and GG-Avitag
Described as above.
For B1, the IC50 came to 0.94 nM.
On the same count and under the same terms, then B2, with 1.28 nM; and B3, with 1.24 nM.
Turning to B4, the IC50 was found to be 1.03 nM.
The same measure, in the same setting: the same measure for B5: 1.16 nM.

For another assay, the target named is T3, recombinant human αvβ6 integrin extracellular domains (human, UniProt P06756 1-992; P18564 1-709, Biotinylated on the Avitag (tag not in the letters); interchain disulfide between the coiled-coils (not in the letters).).
T3 construct: Soluble heterodimer co-expressed in Expi293 cells; also called hαvβ6
The assay is described as follows: AlphaLISA blocking of human LAP binding.
On to B1, for which the IC50 was found to be 30.9 nM.
Same read-out and setting: then B2, with 7.49 nM.
As for B3, the 50% inhibitory concentration (IC50) was 25.4 nM.
Same read-out and setting: the same measure for B4: 16.4 nM; for B5: 96 nM.

Another assay deals with T4, recombinant human αvβ8 integrin extracellular domains (human, UniProt P06756 1-992; P26012 1-684, Biotinylated on the Avitag (tag not in the letters); interchain disulfide between the coiled-coils (not in the letters).).
T4 construct: Soluble heterodimer co-expressed in Expi293 cells; also called hαvβ8
The assay is described as follows: AlphaLISA blocking of human LAP binding.
Take B1: the IC50 was found to be 47.8 nM.
Take B2: the IC50 stood at 12.2 nM.
The same measure, in the same setting: then B3, with 19.7 nM; and B4, with 48 nM; and B5, with 200 nM.

The target of another assay is T5, human αvβ6 integrin on CHOK1 stable cells (human, UniProt P06756 31-1048; P18564 22-788).
T5 construct: whole, on cells; Stably expressed on CHOK1 cells; also called hαvβ6; CHOK1-human αvβ6
The assay is described as follows: cell-based ELISA (CELISA), CHOK1 cells expressing the integrin. The procedure: (§1) Integrin cell-based ELISA (CELISA) assay. Cell binding EC₅₀ data for antibodies were obtained for CHOK1 parental cells and CHOK1 cells expressing human or mouse αvβ1, αvβ6, and αvβ1 integrins by cell-based ELISA. Three days prior to the assay cells were seeded at 10,000 cells per well in 100 μL/well of media in Falcon 96-well Flat-Bottom Tissue Culture Plates (REF 353916), resulting in an even cell monolayer in each well on the day of the assay. On the day of the assay, media was removed from the cells and a fivefold titration of primary antibodies was added at concentrations ranging from 0 to 200 nM in TBSF+MnCl₂ buffer (25 mM Tris, 0.15 M NaCl, 0.1% BSA, 0.5 mM MnCl₂, pH 7.5). Cells incubated with primary antibody solution for 1 hour at room temperature. […] After 30 minutes of incubation at room temperature, secondary antibody was removed, and cells were washed twice with 150 μL/well of 1×DPBS+Tween 20. Then 50 μL/well of TMB substrate (1-Step Ultra TMB-ELISA, Thermo Scientific, #34028) was added, incubated with cells at room temperature, and 50 μL/well of TMB stop solution (Seracare, #KPL 50-85-05) was then added after five minutes. Absorbance was read on a TECAN plate reader at 450 nm, with a 620 nm reference wavelength.
In the case of B1, the EC50 came out at 0.483 nM.
The molecule B2 yielded an EC50 of 0.417 nM.
Same read-out and setting: then B3, with 0.323 nM.
Consider B4, for which a half-maximal effect (EC50) was put at 0.438 nM.
Still for that read-out and setting: the same measure for B5: 0.861 nM.

A further assay concerns the target T6, mouse αvβ6 integrin on CHOK1 stable cells (mouse, UniProt P43406 31-1044; Q9Z0T9 22-787).
T6 construct: whole, on cells; Stably expressed on CHOK1 cells; also called mαvβ6; CHOK1-mouse αvβ6
Described as above. The method, then:
as §1
With B1, the EC50 is 0.64 nM.
As for B2, it took 2.84 nM to reach a half-maximal effect (EC50).
The molecule B3 came in with a concentration giving a half-maximal response (EC50) of 0.335 nM.
Molecule B4 displayed a concentration for a half-maximal effect (EC50) of 0.508 nM.
The molecule B5 yielded an EC50 of 0.285 nM.

The next assay concerns the target T7, human α5β1 integrin on CHOK1 stable cells (human, UniProt P08648 42-1049; P05556 21-798).
T7 construct: whole, on cells; Stably expressed on CHOK1 cells; also called hα5β1; CHOK1-human α5β1
Described as above. The procedure:
as §1
In the case of B1, the EC50 was found to be 1.22 nM.
B3: the EC50 was 0.495 nM.
As to B4, the EC50 was determined as 0.597 nM.
Same read-out and setting: then B5, with 0.166 nM.

The next assay has as its target T8, mouse α5β1 integrin on CHOK1 stable cells (mouse, UniProt P11688 45-1053; P09055 21-798).
T8 construct: whole, on cells; Stably expressed on CHOK1 cells; also called mα5β1; CHOK1-mouse α5β1
Described as above. The procedure: as §1
The molecule B1 gave an EC50 of 1.76 nM.
B3 had an EC50 of 0.03 nM.
Still for that read-out and setting: the same measure for B4: 0.131 nM.
For B5, it took 0.213 nM to reach a half-maximal effect (EC50).

The target of another assay is T9, human αvβ1 integrin on CHOK1 stable cells (human, UniProt P06756 31-1048; P05556 21-798).
T9 construct: whole, on cells; Stably expressed on CHOK1 cells; also called hαvβ1; CHOK1-human αvβ1
Described as above. The method, then: as §1
B1 gave an EC50 of 0.32 nM.
The molecule B2 had an EC50 of 0.702 nM.
In turn, B3 came in with an EC50 of 0.23 nM.
Turning to B4, it took 0.335 nM to reach a half-maximal effect (EC50).
The same measure, in the same setting: the same measure for B5: 0.198 nM.

The target in another assay is T10, mouse αvβ1 integrin on CHOK1 stable cells (mouse, UniProt P43406 31-1044; P09055 21-798).
T10 construct: whole, on cells; Stably expressed on CHOK1 cells; the adhesion assay used the line with the hamster α5 gene knocked out (CHOK1-α5KO-mαvβ1); also called mαvβ1; CHOK1-mouse αvβ1
T10 sequence (P43406 31-1044, chain 1 of 2): as the sequence (P43406 31-1044, chain 1 of 2) above
T10 sequence (P09055 21-798, chain 2 of 2): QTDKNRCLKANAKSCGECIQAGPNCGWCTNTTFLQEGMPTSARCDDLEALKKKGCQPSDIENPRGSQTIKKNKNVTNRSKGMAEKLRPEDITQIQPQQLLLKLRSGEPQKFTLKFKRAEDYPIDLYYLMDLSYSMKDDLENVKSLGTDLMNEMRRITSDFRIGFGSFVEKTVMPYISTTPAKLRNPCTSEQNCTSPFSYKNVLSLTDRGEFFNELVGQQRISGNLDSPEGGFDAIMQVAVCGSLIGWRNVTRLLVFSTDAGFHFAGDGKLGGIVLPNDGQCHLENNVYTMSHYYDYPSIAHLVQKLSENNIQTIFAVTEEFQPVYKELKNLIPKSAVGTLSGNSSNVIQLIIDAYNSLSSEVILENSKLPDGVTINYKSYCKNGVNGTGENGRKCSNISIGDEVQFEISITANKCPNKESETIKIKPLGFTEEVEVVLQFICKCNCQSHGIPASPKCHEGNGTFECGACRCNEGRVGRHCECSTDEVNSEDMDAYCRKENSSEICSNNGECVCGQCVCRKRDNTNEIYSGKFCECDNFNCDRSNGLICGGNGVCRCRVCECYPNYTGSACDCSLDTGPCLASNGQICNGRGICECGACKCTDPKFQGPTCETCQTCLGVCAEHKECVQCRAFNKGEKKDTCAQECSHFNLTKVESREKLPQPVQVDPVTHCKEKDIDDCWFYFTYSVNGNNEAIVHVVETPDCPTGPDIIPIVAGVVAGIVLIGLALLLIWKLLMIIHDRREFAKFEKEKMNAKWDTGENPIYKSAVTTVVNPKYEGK
Described as above. The method, then: as §1
Consider B1, for which the EC50 was 0.743 nM.
Turning to B2, the concentration for a half-maximal effect (EC50) turned out to be 2.84 nM.
The same measure, in the same setting: the same measure for B3: 0.593 nM; for B4: 0.609 nM.
B5 showed an EC50 of 1.09 nM.

The target in a further assay is T11, recombinant mouse αvβ3 integrin extracellular domains (mouse, UniProt P43406 1-988; O54890 1-717, Biotinylated on the Avitag (tag not in the letters); interchain disulfide between the coiled-coils (not in the letters).).
T11 construct: Soluble heterodimer co-expressed in Expi293 cells; also called mαvβ3
T11 sequence (P43406 31-988 limits assumed, form in doubt, chain 1 of 2): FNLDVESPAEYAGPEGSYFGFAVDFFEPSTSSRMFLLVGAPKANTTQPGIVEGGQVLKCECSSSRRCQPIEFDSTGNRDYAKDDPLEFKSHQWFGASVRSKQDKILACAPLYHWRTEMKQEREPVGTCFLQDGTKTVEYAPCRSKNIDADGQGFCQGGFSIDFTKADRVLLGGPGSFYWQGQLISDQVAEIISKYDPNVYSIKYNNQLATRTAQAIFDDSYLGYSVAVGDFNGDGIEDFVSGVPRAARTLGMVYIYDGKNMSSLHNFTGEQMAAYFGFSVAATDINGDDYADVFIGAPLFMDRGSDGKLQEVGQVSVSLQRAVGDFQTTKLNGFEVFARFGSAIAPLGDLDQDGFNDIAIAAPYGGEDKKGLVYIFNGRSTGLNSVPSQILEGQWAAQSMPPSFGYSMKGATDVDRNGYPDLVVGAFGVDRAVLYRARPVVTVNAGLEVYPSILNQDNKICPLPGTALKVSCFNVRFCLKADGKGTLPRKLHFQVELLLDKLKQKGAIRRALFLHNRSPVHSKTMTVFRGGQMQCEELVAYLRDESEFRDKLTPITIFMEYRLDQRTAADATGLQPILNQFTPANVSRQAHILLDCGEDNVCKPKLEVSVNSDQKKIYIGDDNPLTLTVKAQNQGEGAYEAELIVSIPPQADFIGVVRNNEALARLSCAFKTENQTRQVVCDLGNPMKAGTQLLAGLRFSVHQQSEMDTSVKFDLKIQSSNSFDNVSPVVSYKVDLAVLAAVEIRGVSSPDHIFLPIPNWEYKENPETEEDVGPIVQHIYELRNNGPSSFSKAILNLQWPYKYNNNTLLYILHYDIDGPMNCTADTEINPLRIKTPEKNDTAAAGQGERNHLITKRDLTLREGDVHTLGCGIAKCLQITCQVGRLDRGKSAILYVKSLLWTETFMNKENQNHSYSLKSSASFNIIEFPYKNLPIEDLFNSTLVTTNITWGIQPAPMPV
T11 sequence (O54890 26-717 limits assumed, form in doubt, chain 2 of 2): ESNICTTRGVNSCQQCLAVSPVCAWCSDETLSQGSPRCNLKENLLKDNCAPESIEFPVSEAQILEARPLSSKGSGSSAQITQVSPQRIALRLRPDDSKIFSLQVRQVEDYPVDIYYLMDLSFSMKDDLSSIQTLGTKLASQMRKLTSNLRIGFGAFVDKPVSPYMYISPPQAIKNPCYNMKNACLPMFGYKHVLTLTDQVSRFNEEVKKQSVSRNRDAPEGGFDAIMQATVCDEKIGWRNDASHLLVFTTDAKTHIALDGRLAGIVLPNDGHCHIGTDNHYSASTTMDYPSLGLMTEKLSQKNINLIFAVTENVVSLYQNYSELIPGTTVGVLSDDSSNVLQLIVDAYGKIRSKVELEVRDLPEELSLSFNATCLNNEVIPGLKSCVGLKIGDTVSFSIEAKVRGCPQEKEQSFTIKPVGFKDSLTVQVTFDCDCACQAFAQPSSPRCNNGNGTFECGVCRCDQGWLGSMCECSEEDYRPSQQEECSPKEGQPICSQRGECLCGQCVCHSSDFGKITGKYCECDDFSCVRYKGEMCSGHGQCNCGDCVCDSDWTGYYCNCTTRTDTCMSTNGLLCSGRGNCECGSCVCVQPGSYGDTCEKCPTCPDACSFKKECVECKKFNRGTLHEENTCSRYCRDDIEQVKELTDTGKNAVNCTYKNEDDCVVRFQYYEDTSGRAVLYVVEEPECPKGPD
The assay is described as follows: AlphaLISA blocking of mouse vitronectin binding. The procedure: Briefly, the testing antibody (8 μL) was added as a 4×(of Final testing concentration) solution in the HEPES buffer described previously into a 384w AlphaPlate™ (Perkin Elmer #6005350). Then the integrin and ligand were added sequentially as 8×(4 μL each). Plates were sealed and incubated at room temperature for two hours. Then 4×acceptor bead solution ([…]) was added, and the plates were resealed and incubated at room temperature (RT) for one hour. Finally, 4×([…]) donor beads solution was added in a darkened room and incubated for 45 minutes at room temperature. Plates were read on the Envision (Perkin Elmer) in AlphaScreen™ mode within three hours of donor bead addition.
Regarding B1, the IC50 is 3.2 nM.
On the same count and under the same terms, then B2, with 9.2 nM; and B3, with 4.2 nM.
The same measure, in the same setting: the same measure for B4: 4.3 nM; for B5: 3.4 nM.

For the next assay, the target named is T12, recombinant human α5β1 integrin extracellular domains (human, UniProt P08648 1-995; P05556 1-728, Biotinylated on the Avitag (tag not in the letters); interchain disulfide between the coiled-coils (not in the letters).).
T12 construct: Soluble heterodimer co-expressed in Expi293 cells; also called hα5β1
The assay is described as follows: AlphaLISA blocking of human fibronectin binding.
Consider B1, for which the IC50 amounted to 47.3 nM.
Same read-out and setting: the same measure for B2: 31.1 nM; for B3: 43.1 nM.
Regarding B4, the IC50 is 34.1 nM.
On the same count and under the same terms, the same measure for B5: 9.46 nM.
